Assay results taken from US20150266963A1 (ARGEN X B V, published 2015).

T1: recombinant human CD70 (Flag-TNC-CD70) (human, UniProt P32970 39-193)
T1 construct: extracellular domain; Captured by anti-Flag mAb in ELISA; as 'recombinant human CD70' immobilised on Biacore CM5 chips; TNC is for trimerisation; also called recombinant CD70; human recombinant CD70; not shown: Flag tag and TNC trimerisation domain
T1 sequence (looked up): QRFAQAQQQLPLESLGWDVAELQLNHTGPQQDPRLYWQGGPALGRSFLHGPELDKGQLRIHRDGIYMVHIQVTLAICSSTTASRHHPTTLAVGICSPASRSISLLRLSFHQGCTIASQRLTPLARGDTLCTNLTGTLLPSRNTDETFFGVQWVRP


target: T1, recombinant human CD70 (Flag-TNC-CD70); experiment: Biacore; recombinant human CD70 on CM5 chip; Fab injected
Procedure: Off-rates of the purified llama-derived anti-CD70 blocking Fabs were determined using the Biacore. Recombinant human CD70 was immobilized on a CM5 Biacore chip. The immobilization was performed in accordance with a method provided by Biacore and by using the NHS/EDC kit (Biacore AB): after activation of the chip, a solution of 50 μg/ml of recombinant CD70 in 10 mM acetate buffer with pH of 5 was prepared and 1 μl of this solution (50ng) was injected resulting in a surface density of approximately 1000 RU.
Fabs for the CD70 mAbs ARGX-110, MDX2H5 and SGN70 were prepared by […] digestion (SGN70 and MDX69A7 are described elsewhere herein, MDX2H5, also referred to as MDX1411, is described in WO2008/074004 FIGS. 1A and 1B). Fabs, at a concentration of approximately 100-400 μg/ml, were diluted 6-fold in hepes-buffered saline (0.1M Hepes, 1.5M NaCl, 30 mM EDTA, 0.5% v/v surfactant P20). They were injected (30 μl) and passed through the flow cells at a flow rate of 30 μl/min. After binding of the Fab to CD70, the off-rate was monitored for a period of 10 minutes. After the dissociation, the flow cell surfaces were regenerated by injecting 5 μl of 10 mM NaOH. Sometimes multiple injections of NaOH were needed to regenerate the surfaces depending on the affinity of the Fabs. Off-rate analysis was done by applying the BIAevaluation software. First, the sensogram of the blank runs were subtracted from those obtained with the coated flow cell. […] Moreover, the off-rate of CD27 for CD70 was determined as well.

| Binder | koff |
| --- | --- |
| 24E3 Fab (Fab, V domains shown, Llama-derived Fab) VH: EVQLVESGGGLVQPGGSLRLSCAASGFTFSVYYMNWVRQAPGKGLEWVSDINNEGGTTYYADSVKGRFTISRDNAKNTLTLQMNSLKPEDTALYYCVRDAGYSNHVPIFDSWGQGTQVIVAS VL: QAVVTQEPSLSVSPGGTVTLTCGLTSGSVTSDNFPVWYQQTPGQAPRLLIYTINSRHSGVPSRFSGSITGNKAILTITGAQPEDEADYYCALYLENFANEFGGGTRLTVLG | 8e-05 s⁻¹ |
| 33D8 Fab (Fab, V domains shown, Llama-derived Fab) VH: EVQLVESGGGLVQPGGSLRLSCAASGFTFSVYYMNWVRQAPGKGLEWVSDINNEGGTTYYADSVKGRFTISRDNAKNTLTLQMNSLKPEDTALYYCVRDAGYSNHVPIFDSWGQGTQVIVAS VL: QSALTQPSTVSVSLGQTARITCRGDSLERYGTNWYQQKPGQAPVLVIYDDDSRPSGIPERFSGSSSGATAALTISGAQAEDEGDYYCQSADSSGNAVFGGGTHLTVLG | 0.00045 s⁻¹ |
| 8B12 Fab (Fab, V domains shown, Llama-derived Fab) VH: EVQLVESGGGLVQPGGSLRLSCAASGFTFSVYYMNWVRQAPGKGLEWVSDINNEGDTTYYADSVKGRFTISRDNAKNTLTLQMDSLKPEDTALYYCVRDAGYSNHVPIFDSWGQGTQVIVAS VL: QTVVTQEPSLSVSPGGTVTLTCGLSSGSVTSSNYPGWYQQTPGQAPRVLIYNTNNRHSGVPSRYSGSISGNKAALTITGAEPEDEADYYCNLHLGSYTPMFGGGTKLTVLG | 0.00036 s⁻¹ |
| 45B12 Fab (Fab, V domains shown, Llama-derived Fab) VH: EVQLVESGGGLVQPGGSLRLSCAASGFTFSAYYMNWVRQAPGKGLEWISDINNEGYETYYADSVKGRFTISRDNAKNTLTLQMDSLKPEDTARYYCVRDAGYSNHVQIFDSWGQGTQVIVAS VL: QAVLTQPSSVSVSLGQTAKITCQGGNLGLYGANWYQQNPGRAPILLIYGDNYRPLGIPERFTISKSGGTATLTIDGAQAEDESDYYCQSADYSGNSVFGGGTKLTVLG | 0.00021 s⁻¹ |
| 45D9 Fab (Fab, V domains shown, Llama-derived Fab) VH: EVQLVESGGGLVQPGGSLRLSCAASGFTFSAYYMNWVRQAPGKGLEWISDINNEGYETYYADSVKGRFTISRDNAKNTLTLQMDSLKPEDTARYYCVRDAGYSNHVQIFDSWGQGTQVIVAS VL: QAVLTQPSSVSVSLGQTAKITCQGGNLWLYGANWYQQNPGRAPILLIYGDNQRPLGIPERFTISKSGGTATLTIDGAQAEDESDYYCQSADYSGNSVFGGGTKLTVLG | 0.00021 s⁻¹ |
| 45F8 Fab (Fab, V domains shown, Llama-derived Fab) VH: EVQLVESGGGLVQPGGSLRLSCAASGFTFSAYYMNWVRQAPGKGLEWISDINNEGYETYYADSVKGRFTISRDNAKNTLTLQMDSLKPEDTARYYCVRDAGYSNHVQIFDSWGQGTQVIVAS VL: QAVLTQPSSVSVSLGQTANITCQGGNLGLYGANWYQQNPGRAPILLFYGDNYMPLGIPERFTISKSGGTATLTIDGAQAENESDYYCQSSDYPGNSVFGGGTKLTVLG | 0.0002 s⁻¹ |
| 59D10 Fab (Fab, V domains shown, Llama-derived Fab) VH: EVQLVESGGGLVQPGGSLRLSCAASELSFSISEMTWVRQAPGKGLEWVSGISGVTGGSSTSYADSVKGRFTISRDNDKNTLYLQMNSLIPEDTAVYYCATTSGTYYFIPEYEYWGQGTQVTVSS VL: QSVLTQPPSVSGSPGKTVTISCAGTSSDVGYGYYVSWYQQFPGMAPKLLIYDVNKRASGIADRFSGSKAGNTASLTISGLQSEDEADYYCASYRSSANAVFGGGTHLTVLG | 0.00139 s⁻¹ |

target: T1, recombinant human CD70 (Flag-TNC-CD70); experiment: Biacore; CD70 coated CM5 chip; Fab in periplasmic fraction
Procedure: Phage eluted from rounds 3, 4 and 5 of selection were transfected into TG1 and plated clonally; individual clones were picked randomly for further analysis. Periplasmic fractions containing Fabs were prepared from IPTG induced small scale cultures the off rate of each Fab was determined using a CD70 coated CM5 chip in a Biacore binding assay. Clones with Fab having off rates similar to that of 27B3 were sequenced.

| Binder | koff |
| --- | --- |
| 41D12 Fab (Fab, V domains shown, Germlined 27B3 Fab, periplasmic fraction) VH: EVQLVESGGGLVQPGGSLRLSCAASGFTFSVYYMNWVRQAPGKGLEWVSDINNEGGTTYYADSVKGRFTISRDNSKNSLYLQMNSLRAEDTAVYYCARDAGYSNHVPIFDSWGQGTLVTVSS VL: QAVVTQEPSLTVSPGGTVTLTCGLKSGSVTSDNFPTWYQQTPGQAPRLLIYNTNTRHSGVPDRFSGSILGNKAALTITGAQADDEAEYFCALFISNPSVEFGGGTQLTVLG | 0.00023 s⁻¹ |
| 35G1 Fab (Fab, V domains shown, Germlined 27B3 Fab, periplasmic fraction) VH: EVQLVESGGGLVQPGGSVRLSCAASGFTFSVYYMNWVRQAPGKGLEWVSDINNEGGTTYYADSVKGRFTISRDNAKNTLYLQMNSLKPEDTAVYYCARDAGYSNHVPIFDSWGQGTLVTVAS VL: QTVVTQEPSFSVSPGGTVTLTCGLKSGSVTSDNFPTWYQQTPGQAPRLLIYNTNSRHSGVPDRFSGSILGNKAALTITGAQADDESDYFCALFISNPSVEFGGGTQLTVLG | 0.00023 s⁻¹ |
| 35G2 Fab (Fab, V domains shown, Germlined 27B3 Fab, periplasmic fraction) VH: EVQLVESGGGLVQPGGSLRLSCAASGFTFSVYYMNWVRQAPGKGLEWVSDINNEGGTTYYADSVKGRFTISRDNAKNTLYLQMNSLKPEDTAVYYCARDAGYSNHVPIFDSWGQGTLVTVSS VL: QTVVTQEPSFSVSPGGTVTLTCGLKSGSVTSTNFPTWYQQTPGQAPRLLIYNTNSRHSGVPDRFSGSILGNKAALTITGAQADDEADYFCALFISNPSVEFGGGTQLTVLG | 0.00017 s⁻¹ |
| 35G3 Fab (Fab, V domains shown, Germlined 27B3 Fab, periplasmic fraction) VH: EVQLVESGGGLVQPGGSLRLSCAASGFTFSVYYMNWVRQAPGKGLEWVSDINNEGGTTYYADSVKGRFTISRDNSKNSLTLQMNSLKPEDTAVYYCARDAGYSNHVPIFDSWGQGTLVTVSS VL: QAVVTQEPSFSVSPGGTVTLTCGLKSGSVTSDNFPTWYQQTPGQAPRLLIYNTNSRHSGVPDRFSGSILGNKAALTIRGAQADDEAEYYCALFISNPSVEFGGGTQLTVLG | 0.00017 s⁻¹ |
| 36A9 Fab (Fab, V domains shown, Germlined 27B3 Fab, periplasmic fraction) VH: EVQLVESGGGLVQPGGSLRLSCAASGFTFSVYYMNWVRQAPGKGLEWVSDINNEGGTTYYADSVKGRFTISRDNSKNTLTLQMNSLKPEDTAVYYCVRDAGYSNHVPIFDSWGQGTQVIVSS VL: QTVVTQEPSFSVSPGGTVTLTCGLKSGSVTSDNFPTWYQQTPGQAPRLLIYNTNTRHSGVPDRFSGSILGNKAALTITGAQADDESDYFCALFISNPSVEFGGGTQLTVLG | 0.00013 s⁻¹ |
| 36D6 Fab (Fab, V domains shown, Germlined 27B3 Fab, periplasmic fraction) VH: EVQLVESGGGLVQPGGSLRLSCAASGFTFSVYYMNWVRQAPGKGLEWVSDINNEGGTTYYADSVKGRFTISRDNAKNTLYLQMNSLKPEDTALYYCVRDAGYSNHVPIFDSWGQGTTVTVSS VL: QTVVTQEPSLTVSPGGTVTLTCGLKSGSVTSTNFPTWYQQTPGQAPRLLIYNTNSRHSGVPDRFSGSILGNKAALTITGAQADDESDYFCALFISNPSVEFGGGTQLTVLG | 0.00014 s⁻¹ |
| 36G2 Fab (Fab, V domains shown, Germlined 27B3 Fab, periplasmic fraction) VH: EVQLVESGGGLVQPGGSLRLSCAASGFTFSVYYMNWVRQAPGKGLEWVSDINNEGGTTYYADSVKGRFTISRDNAKNSLTLQMNSLRAEDTAVYYCVRDAGYSNHVPIFDSWGQGTQVTVSS VL: QAVVTQEPSLTVSPGGTVTLTCGLKSGSVTSDNFPTWYQQTPGQAPRLLIYNTNTRHSGVPDRFSGSILGNKAALTITGAQPEDESDYYCALFISNPSVEFGGGTQLTVLG | 0.00011 s⁻¹ |
| 39C3 Fab (Fab, V domains shown, Germlined 27B3 Fab, periplasmic fraction) VH: EVQLVASGGGLVQPGGSLRLSCAASGFTFSVYYMNWVRQAPGKGLEWVSDINNEGGTTYYADSVKGRFTISRDNSKNTLYLQMNSLRAEDTAVYYCARDAGYSNHVPIFDSWGQGTTVTVSS VL: QAVVTQEPSFSVSPGGTVTLTCGLKSGSVTSDNFPTWYQQTPGQAPRLLIYNTNTRHSGVPSRFSGSILGNKAALTITGAQADDESDYYCALFISNPSVEFGGGTQLTVLG | 0.00025 s⁻¹ |
| 40F1 Fab (Fab, V domains shown, Germlined 27B3 Fab, periplasmic fraction) VH: EVQLVESGGGLVQPGGSLRLSCAASGFTFSVYYMNWVRQAPGKGLEWVSDINNEGGATYYADSVKGRFTISRDNSKNSLYLQMNSLRAEDTAVYYCARDAGYSNHVPIFDSWGQGTQVTVSS VL: QAVVTQEPSFSVSPGGTVTLTCGLKSGSVTSDNFPTWYQQTPGQAPRLLIYNTNTRHSGVPDRFSGSILGNKAALTITGAQADDEAEYFCALFISNPSVEFGGGTQLTVLG | 0.00016 s⁻¹ |
| 41H8 Fab (Fab, V domains shown, Germlined 27B3 Fab, periplasmic fraction) VH: EVQLVESGGGLVQPGGSLRLSCAASGFTFSVYYMNWVRQAPGKGLEWVSDINNEGGTTYYADSVKGRFTISRDNSKNTLYLQMNSLRAEDTAVYYCARDAGYSNHVPIFDSWGQGTQVTVAS VL: QAVVTQEPSFSVSPGGTVTLTCGLTSGSVTSTNFPTWYQQTPGQAPRLLIYNTNSRHSGVPDRFSGSILGNKAALTITGAQPEDESDYFCALFISNPSVEFGGGTQLTVLG | 0.00022 s⁻¹ |
| 42D12 Fab (Fab, V domains shown, Germlined 27B3 Fab, periplasmic fraction) VH: EVQLVESGGGLVQPGGSLRLSCAASGFTFSVYYMNWVRQAPGKGLEWVSDINNEGGTTYYADSVKGRFTISRDNSKNTLYLQMNSLRAEDTAVYYCVRDAGYSNHVPIFDSWGQGTQVTVSS VL: QAVVTQEPSFSVSPGGTVTLTCGLTSGSVTSTNFPTWYQQTPGQAPRLLIYNTNTRHSGVPSRFSGSILGNKAALTITGAQADDEAEYFCALFISNPSVEFGGGTQLTVLG | 0.00016 s⁻¹ |
